Results from publication PMC7480108.

What was measured:
GST-FGD1^18-335 = GST-FGD1^18-335 (UniProt P52734); test: pull-down; GST-tagged FGD1 fragment (2 µM) immobilised on Glutathione Sepharose 4B beads, incubated with MDA-MB-231 cell lysates (untransfected or transfected with TKS5^GFP constructs) 2 h at 4°C; 50 mM Tris-HCl pH 7.5, 150 mM NaCl, 0.5 mM EDTA, 10 mM MgCl2, 10% glycerol, 0.7% NP-40; immunoblotting
[1] = target: endogenous FGD1 (faciogenital dysplasia protein 1) (UniProt P98174); test: co-immunoprecipitation (anti-GFP nanobody, GFP-Trap) with FGD1 immunoblot; details: lysates of MDA-MB-231 cells; 1% of total lysate loaded as input; parent: 100
TKS5^GFPW1092A (human) = test: co-IP; GFP-Trap (anti-GFP nanobody beads) from NP-40 lysates of MDA-MB-231 cells expressing GFP-tagged constructs, 1 h 4°C; immunoblotting of bound proteins

UniProt P52734, sequence (P52734 18-335): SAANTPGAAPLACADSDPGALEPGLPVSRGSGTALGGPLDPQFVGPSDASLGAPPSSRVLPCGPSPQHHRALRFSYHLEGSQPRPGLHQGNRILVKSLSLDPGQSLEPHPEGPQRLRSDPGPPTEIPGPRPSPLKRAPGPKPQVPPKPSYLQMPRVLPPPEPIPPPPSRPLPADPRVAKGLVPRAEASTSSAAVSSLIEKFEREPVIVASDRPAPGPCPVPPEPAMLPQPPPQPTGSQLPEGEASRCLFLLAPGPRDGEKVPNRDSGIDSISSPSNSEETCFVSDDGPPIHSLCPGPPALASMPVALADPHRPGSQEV

Molecule: TKS5^GFP (natural protein)
- percent of the input pulled down (% of the input) (GST-FGD1^18-335): 1.35

Molecule: TKS5_324-1118^GFP (domain or fragment)
- percent of the input pulled down (% of the input) (GST-FGD1^18-335): 2.85

Molecule: TKS5^GFP W861A
- percent of parent (% of wild-type TKS5) [1]: 91

B1: endogenous FGD1 (faciogenital dysplasia protein 1) (natural protein)
chain: MHGHRAPGGAGPSEPEHPATNPPGAAPPACADSDPGASEPGLLARRGSGSALGGPLDPQFVGPSDTSLGAAPGHRVLPCGPSPQHHRALRFSYHLEGSQPRPGLHQGNRILVKSLSLDPGQSLEPHPEGPQRLRSDPGPPTETPSQRPSPLKRAPGPKPQVPPKPSYLQMPRMPPPLEPIPPPPSRPLPADPRVAKGLAPRAEASPSSAAVSSLIEKFEREPVIVASDRPVPGPSPGPPEPVMLPQPTSQPPVPQLPEGEASRCLFLLAPGPRDGEKVPNRDSGIDSISSPSNSEETCFVSDDGPPSHSLCPGPPALASVPVALADPHRPGSQEVDSDLEEEDDEEEEEEKDREIPVPLMERQESVELTVQQKVFHIANELLQTEKAYVSRLHLLDQVFCARLLEEARNRSSFPADVVHGIFSNICSIYCFHQQFLLPELEKRMEEWDRYPRIGDILQKLAPFLKMYGEYVKNFDRAVELVNTWTERSTQFKVIIHEVQKEEACGNLTLQHHMLEPVQRIPRYELLLKDYLLKLPHGSPDSKDAQKSLELIATAAEHSNAAIRKMERMHKLLKVYELLGGEEDIVSPTKELIKEGHILKLSAKNGTTQDRYLILFNDRLLYCVPRLRLLGQKFSVRARIDVDGMELKESSNLNLPRTFLVSGKQRSLELQARTEEEKKDWVQAINSTLLKHEQTLETFKLLNSTNREDEDTPPNSPNVDLGKRAPTPIREKEVTMCMRCQEPFNSITKRRHHCKACGHVVCGKCSEFRARLVYDNNRSNRVCTDCYVALHGVPGSSPACSQHTPQRRRSILEKQASVAAENSVICSFLHYMEKGGKGWHKAWFVVPENEPLVLYIYGAPQDVKAQRSLPLIGFEVGPPEAGERPDRRHVFKITQSHLSWYFSPETEELQRRWMAVLGRAGRGDTFCPGPTLSEDREMEEAPVAALGATAEPPESPQTRDKT
- percent of the wild-type TKS5 binding capacity (% of wild type) (TKS5^GFPW1092A (human)): 10
